# T1: GST-occludin 383–522 S408A (human, UniProt Q16625 383-522, S408A)
# T1 sequence: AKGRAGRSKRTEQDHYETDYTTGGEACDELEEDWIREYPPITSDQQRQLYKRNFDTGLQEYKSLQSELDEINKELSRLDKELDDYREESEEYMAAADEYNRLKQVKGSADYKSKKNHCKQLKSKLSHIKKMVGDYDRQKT
# B1: VSV G epitope-tagged human ZO-1 U5-GuK domain construct (residues 591–754) (domain or fragment)
# chain: PKTAGGDRADFWRFRGLRSSKRNLRKSREDLSAQPVQTKFPAYERVVLREAGFLRPVTIFGPIADVAREKLAREEPDIYQIAKSEPRDAGTDQRSSGIIRLHTIKQIIDQDKHALLDVTPNAVDRLNYAQWYPIVVFLNPDSKQGVKTMRMRLCPESRKSARKL
# Biological target: T1, GST-occludin 383–522 S408A
# Experiment: pull-down
binder,measurement,value
B1,fold binding relative to the S408D mutant,3.2 fold
